± gives the uncertainty stated by the source.
Experiment: self-splicing fitness, log relative to wild type (ln ratio); higher = more splicing; Tetrahymena group I intron in knt gene, E. coli kanamycin selection, DiMSum; sequences stand for … in CUCUCU…GGAGGGAAAAGUUAUCAGGCAUGCACCUGGUAGCUAGUCUUUAAACCAAUAGAUUGCAUCGGUUUAAAAGGCAAGACCGUCAAAUUGCGGGAAAGGGGUCAACAGCCGUUCAGUACCAAGUCUCAGGGGAAACUUUGAGAUGGCCUUGCAAAGGGUAUGGUAAUAAGCUGACGGACAUGGUCCUAACCACGCAGCCAAGUCCUAAGUCAACAGAUCUUCUGUUGAUAUGGAUGCAGUUCACAGACUAAAUGUCGGUCGGGGAAGAUGUAUUCUUCUCAUAAGAUAUAGUCGGACCUCUCCUUAAUGGGAGCUAGCGGAUGAAGUGAUGCAACACUGGAGCCGCUGGGAACUAAUUUGUAUGCGAAAGUAUAUUGAUUAGUUUUGGAGUACUCGUGGUCG
Method in brief: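 Colonies from six replicate transformations of E. coli BL21(DE3) were pooled and amplicon-sequenced on an Illumina HiSeq 2500. The library placed an intron with all eight P1ex-region nucleotides randomised inside the knt kanamycin-resistance gene on pET-22b(+), and cells grew overnight at 37°C or 30°C on LB agar with or without 25 μg/mL kanamycin (plus 100 μg/mL carbenicillin, 50 μM IPTG, 0.2% rhamnose). Fitness is the DiMSum error-weighted combination of wild-type-normalised replicate fold changes, kanamycin versus none.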

Sequence | self-splicing fitness (ln) (30 °C) | self-splicing fitness (ln) (37 °C)
UAACAGCAAUAUUACGAAUG | -0.844 ± 0.085 | -0.788 ± 0.098
UAACAGCAAUAUUACGACAC | -3.35 ± 0.16 | -0.676 ± 0.11
UAACAGCAAUAUUACGACGU | -1.16 ± 0.071 | -0.452 ± 0.091
UAACAGCAAUAUUACGAGCA | -1.22 ± 0.1 | -0.317 ± 0.1
UAACAGCAAUAUUACGAGGG | -3.58 ± 0.2 | -3.12 ± 0.22
UAACAGCAAUAUUACGAUAG | -1.21 ± 0.11 | -0.506 ± 0.12
UAACAGCAAUAUUACGAUGC | -3.84 ± 0.33 | -2.35 ± 0.26
UAACAGCAAUAUUACGCAUA | -0.955 ± 0.075 | -0.0703 ± 0.069
UAACAGCAAUAUUACGCCAA | -3.04 ± 0.19 | -1.38 ± 0.14
UAACAGCAAUAUUACGCGGG | -2.44 ± 0.1 | -1.18 ± 0.078
UAACAGCAAUAUUACGCUAG | -1.81 ± 0.071 | -0.992 ± 0.08
UAACAGCAAUAUUACGGACU | -1.02 ± 0.064 | -0.504 ± 0.089
UAACAGCAAUAUUACGGCGG | -0.643 ± 0.053 | -0.105 ± 0.068
UAACAGCAAUAUUACGGCGU | -1.79 ± 0.11 | -1.01 ± 0.1
UAACAGCAAUAUUACGGUCC | -2.94 ± 0.15 | -1.99 ± 0.19
UAACAGCAAUAUUACGUGCU | -3.33 ± 0.16 | -2.28 ± 0.16
UAACAGCAAUAUUACGUUGU | -4.18 ± 0.16 | -2.67 ± 0.14
UAAGAGCAAUAUUACGAGAA |  | -1.68 ± 0.46
UAAGAGCAAUAUUACGAGCU | -2.93 ± 0.3 | -2.6 ± 0.44
UAAGAGCAAUAUUACGAGGC |  | -1.97 ± 0.41
UAAGAGCAAUAUUACGAGUA | -2.94 ± 0.19 | -2.66 ± 0.21
UAAGAGCAAUAUUACGAUUU | -2.44 ± 0.17 | -0.0704 ± 0.12
UAAGAGCAAUAUUACGCAUC | -4.23 ± 0.3 | -3.46 ± 0.37
UAAGAGCAAUAUUACGCGCC |  | -1.6 ± 0.38
UAAGAGCAAUAUUACGGACA | -1.78 ± 0.25 | -2.31 ± 0.35
UAAGAGCAAUAUUACGGCUU | -2.3 ± 0.2 | -1.44 ± 0.22
UAAGAGCAAUAUUACGGGGG | -2.94 ± 0.22 | 

Sequence | self-splicing fitness (ln) (30 °C) | self-splicing fitness (ln) (37 °C)
UAAGAGCAAUAUUACGGGUC |  | -1.7 ± 0.41
UAAGAGCAAUAUUACGUACA | -2.95 ± 0.37 | -1.59 ± 0.4
UAAGAGCAAUAUUACGUCGU | -4.06 ± 0.31 | -3.11 ± 0.43
UAAGAGCAAUAUUACGUCUG | -1.54 ± 0.093 | -0.00255 ± 0.11
UAAGAGCAAUAUUACGUGUU | -3.32 ± 0.18 | -2.96 ± 0.3
UAAGAGCAAUAUUACGUUGA |  | -1.97 ± 0.19
UAAGAGCAAUAUUACGUUGU | -1.95 ± 0.2 | -0.367 ± 0.31
UAAUAGCAAUAUUACGAUUA | -1.04 ± 0.13 | 0.0261 ± 0.14
UAAUAGCAAUAUUACGCAAU | -3.5 ± 0.23 | -2.4 ± 0.26
UAAUAGCAAUAUUACGCCUC | -2.77 ± 0.35 | -1.53 ± 0.38
UAAUAGCAAUAUUACGCGUC | -2.88 ± 0.36 | -2 ± 0.38
UAAUAGCAAUAUUACGCUAG | -2.46 ± 0.12 | -0.773 ± 0.14
UAAUAGCAAUAUUACGCUUC |  | -1.72 ± 0.29
UAAUAGCAAUAUUACGGAAU | -2.77 ± 0.2 | -1.76 ± 0.2
UAAUAGCAAUAUUACGGAGG | -3.17 ± 0.24 | -2.83 ± 0.4
UAAUAGCAAUAUUACGGGCU | -3.28 ± 0.27 | -2.16 ± 0.19
UAAUAGCAAUAUUACGGGGU | -3.73 ± 0.42 | -1.38 ± 0.45
UAAUAGCAAUAUUACGGUAA |  | -1.04 ± 0.28
UAAUAGCAAUAUUACGGUCC | -2.53 ± 0.33 | 
UAAUAGCAAUAUUACGGUUU | -2.92 ± 0.19 | -1.39 ± 0.18
UAAUAGCAAUAUUACGUACG | -2.13 ± 0.13 | -1.16 ± 0.17
UAAUAGCAAUAUUACGUCUA | -0.149 ± 0.084 | 0.263 ± 0.087
UAAUAGCAAUAUUACGUGAU | -4.15 ± 0.37 | -1.61 ± 0.21
UAAUAGCAAUAUUACGUGUA | -2.19 ± 0.12 | -0.918 ± 0.1
UAAUAGCAAUAUUACGUUUC | -2.95 ± 0.45 | -1.35 ± 0.23
UAAUAGCAAUAUUACGUUUG | -0.989 ± 0.099 | 0.00265 ± 0.12
UACAAGCAAUAUUACGAACG | -0.239 ± 0.065 | -0.0708 ± 0.08

Sequence | self-splicing fitness (ln) (30 °C) | self-splicing fitness (ln) (37 °C)
UACAAGCAAUAUUACGACCA | -0.29 ± 0.12 | -0.203 ± 0.16
UACAAGCAAUAUUACGACUU | -1.19 ± 0.081 | -0.692 ± 0.097
UACAAGCAAUAUUACGAGCC | -2.24 ± 0.48 | 
UACAAGCAAUAUUACGAGGU | -4.06 ± 0.28 | -1.94 ± 0.28
UACAAGCAAUAUUACGAUCA | -0.336 ± 0.079 | 0.387 ± 0.11
UACAAGCAAUAUUACGAUGC | -3.69 ± 0.28 | -3.13 ± 0.29
UACAAGCAAUAUUACGCACA | -1.23 ± 0.11 | -0.242 ± 0.11
UACAAGCAAUAUUACGCAUU | -3.38 ± 0.19 | -1.63 ± 0.16
UACAAGCAAUAUUACGCGAU | -3.74 ± 0.32 | -1.3 ± 0.2
UACAAGCAAUAUUACGCGCU | -1.39 ± 0.12 | -0.322 ± 0.11
UACAAGCAAUAUUACGCGUU | -2.57 ± 0.096 | -1.71 ± 0.093
UACAAGCAAUAUUACGCUAU | -3.38 ± 0.13 | -1.83 ± 0.11
UACAAGCAAUAUUACGGAGA | -2.4 ± 0.17 | -3.27 ± 0.23
UACAAGCAAUAUUACGGAGG | -3.94 ± 0.22 | -2.03 ± 0.16
UACAAGCAAUAUUACGGAUG | -1.16 ± 0.078 | -0.694 ± 0.11
UACAAGCAAUAUUACGUAAC | -4.15 ± 0.16 | -2.28 ± 0.15
UACAAGCAAUAUUACGUGGA | -2.82 ± 0.15 | -2.27 ± 0.11
UACAAGCAAUAUUACGUUAU | -3.39 ± 0.19 | -1.81 ± 0.1
UACAAGCAAUAUUACGUUUG | -3.72 ± 0.13 | -2.57 ± 0.15
UACCAGCAAUAUUACGAGAA | -1.72 ± 0.14 | -1.22 ± 0.13
UACCAGCAAUAUUACGAGGA | -1.63 ± 0.14 | -1.24 ± 0.12
UACCAGCAAUAUUACGAUAU | -2.78 ± 0.12 | -1.32 ± 0.12
UACCAGCAAUAUUACGAUUA | -0.0875 ± 0.065 | 0.118 ± 0.075
UACCAGCAAUAUUACGAUUC | -2.36 ± 0.21 | -1.55 ± 0.18
UACCAGCAAUAUUACGAUUG | -2.62 ± 0.084 | -1.35 ± 0.079
